# In patent CN113956352A (FUJIAN MEDICAL UNIV UNION HOSPITAL, dated 2022):
# B1: R44 (antibody, V domains shown)
# VH: QVQLVQSGGGLVQPGGSLRLSCAASEITVSSNYMSWVRQAPGKGLEWVSVLYSGGSTDYADSVKGRFTISRDNSKNTLYLQMNSLRAEDTAVYYCAREVYGMDVWGQGTTVTVSS
# VL: DIVLTQTPSSLSASVGDRVTITCRASQGISSYLAWYQQKPGKAPKLLIYAASTLQSGVPSRFSGSGSGTDFTLTISSLQPEDFATYYCQELSTYPVTFGQGTKVEIK
# B2: R157 (antibody, V domains shown)
# VH: QVQLVQSGAEVKKPGSSVKVSCKASGGTFSSYAINWVRQAPGQGLEWMGGIIPILGIANYAQKFQGRVTITADKSTSTAYMELSSLRSEDTAVYYCAREQGYSGSGANYYFDYWGQGTLVTVSS
# VL: QSVLTQPPSVSGAPGQRVTVSCTGSSSNIGAGYDVHWYQQLPGTAPKLLIYGNTNRPSGVPDRFSGSKSGTSASLAITGLQAEDEADYYCQSYDSSLSDVVFGGGTQLTVL
# B3: R14 (antibody, V domains shown)
# VH: QVQLVQSGAEVKKPGSSVKVSCKASGGTFSSYTISWVRQAPGQGLEWMGRIIPILGIANYAQKFQGRVTITADKSTSTAYMELSSLRSEDTAVYYCAREIGYSSSGSNYYMDVWGKGTTVTVSS
# VL: QSVLTQPPSVSGAPGQRVTISCTGSSSNIGAGYDVHWYQQLPGTAPKLLIYGNSNRPSGVPDRFSGSKSGTSASLAITGLQAEDEADYYCQSYDSSLSGVVFGGGTKLTVL
# B4: R29 (antibody, V domains shown)
# VH: EVQLLESGGGLVQPGRSLRLSCAASGFTFDDYGIHWVRQAQGKGLEWVSGISWNSGTIGYADSVKGRFTISRDNAKNSLYLQMNSLRAEDTALYYCAKDRGGKLRWYEREEYYFDYWGQGTLVTVSS
# VL: SYVLTQPPSVSVAPGQTAKITCGGNDIGRKSVYWYQQKPGQAPILVIYYSSDRPSGIPDRFSGSNSGNTATLTIGRVEAGDEADYYCQVWDSTSDHVIFGGGTKLTVL
# How the values were obtained:
# SARS-CoV-2 S蛋白 (刺突糖蛋白) = SARS-CoV-2 S蛋白 (刺突糖蛋白) (SARS-CoV-2, UniProt P0DTC2 14-1273); test: cell-based or functional assay
# [1] = target: SARS-CoV-2 RBD蛋白 (ELISA coating antigen) (SARS-CoV-2, UniProt P0DTC2 319-541); test: ELISA, plate coated with SARS-CoV-2 RBD, antibody 1 μg/mL, goat anti-human IgG-HRP
# [2] = target: SARS-CoV-2 S-RBD蛋白 (Acrobiosystems, cat.# SPD-C52H3) (SARS-CoV-2, UniProt P0DTC2 319-537); test: SPR (Biacore 8K), antibody captured on Protein A chip, S-RBD 50-0.78125 nM, 1:1 Langmuir fit
binder,measurement,setting,value
B1,"假病毒的抑制率IC50 (Luciferase RLU, Spike假病毒, 293T-ACE2细胞)",SARS-CoV-2 S蛋白 (刺突糖蛋白),1.6 µg/mL
same,ELISA值 (OD450),[1],1.17 OD450
same,Kd,[2],205 pM
B2,ELISA值 (OD450),[1],1.14 OD450
B3,ELISA值 (OD450),[1],1.01 OD450
B4,ELISA值 (OD450),[1],1.06 OD450
